Laboratory results: the RNAGym collection of RNA variant scans (doi:10.7554/elife.80360)

B1: CPEB3 Ribozyme (parent)
chain: GGGGGCCACAGCAGAAGCGUUCACGUCGCGGCCCCUGUCAGAUUCUGGUGAAUCUGCGAAUUCUGCUGU

Variants of: B1
Assay: self-cleavage, relative activity (ratio to wild type); higher = more cleavage; co-transcriptional
G28A A51U showed a self-cleavage of 0.183.
In the case of G28A A51C, the self-cleavage is reported as 0.234.
Variant C27U G65U has a self-cleavage of 0.148.
For C27U G65A, the self-cleavage was 0.172.
Variant C27U G65C has a self-cleavage of 0.196.
For C27U U61C, the self-cleavage was 0.14.
Work on C27U C66U yielded a self-cleavage of 0.203.
Work on C27U C66G yielded a self-cleavage of 0.262.
With C27U C66A the self-cleavage was 0.179.
With C27G U69C the self-cleavage was 0.374.
For C27G U69A, the self-cleavage was 0.267.
With C27G U49A the self-cleavage was 0.209.
C27G U49C showed a self-cleavage of 0.22.
In the case of C27G U49G, the self-cleavage is reported as 0.112.
For U26G U61G, the self-cleavage was 0.558.
With C27G U55A the self-cleavage was 0.142.
Variant C27G U55G has a self-cleavage of 0.159.
In the case of C27U U62A, the self-cleavage is reported as 0.217.
G28A C66G gave a self-cleavage of 0.196.
For G28A A59U, the self-cleavage was 0.198.
With C27G C35A the self-cleavage was 0.124.
For C27G C35G, the self-cleavage was 0.171.
With C27G C35U the self-cleavage was 0.179.
C27A A60G showed a self-cleavage of 0.253.
Work on C27A A60U yielded a self-cleavage of 0.249.
C27G U53A gave a self-cleavage of 0.221.
Work on C27G U53C yielded a self-cleavage of 0.134.
Work on C27G U53G yielded a self-cleavage of 0.267.
For C27A U46G, the self-cleavage was 0.725.
Work on C27A U46A yielded a self-cleavage of 0.736.
C27A G31C showed a self-cleavage of 0.181.
Variant C27G G47C has a self-cleavage of 0.226.
In the case of C27G U64G, the self-cleavage is reported as 0.25.
Variant C27G U64A has a self-cleavage of 0.215.
In the case of G28A C54G, the self-cleavage is reported as 0.177.
With G28A C54U the self-cleavage was 0.194.
C27G G56C gave a self-cleavage of 0.135.
Work on C27A U38A yielded a self-cleavage of 0.26.
Work on C27A U38C yielded a self-cleavage of 0.324.
With C27U U36G the self-cleavage was 0.188.
In the case of C27U U36A, the self-cleavage is reported as 0.167.
C27G A52G showed a self-cleavage of 0.24.
With C27G A52C the self-cleavage was 0.191.
Work on C27G A52U yielded a self-cleavage of 0.132.
With C27A G68A the self-cleavage was 0.853.
C27G C45G gave a self-cleavage of 0.144.
C27U U55A gave a self-cleavage of 0.184.
Work on C27U U55C yielded a self-cleavage of 0.143.
Work on C27U A52C yielded a self-cleavage of 0.302.
Variant C27U A52U has a self-cleavage of 0.291.
In the case of C27U A52G, the self-cleavage is reported as 0.415.
Work on C27A C39U yielded a self-cleavage of 0.339.
Variant C27A C39A has a self-cleavage of 0.205.
In the case of C27A C39G, the self-cleavage is reported as 0.346.
G28A C39U showed a self-cleavage of 0.17.
For G28A C39A, the self-cleavage was 0.198.
C27G U67A showed a self-cleavage of 0.166.
With C27G U67G the self-cleavage was 0.255.
C27G U67C gave a self-cleavage of 0.247.
For C27A G50U, the self-cleavage was 0.647.
C27A G50A showed a self-cleavage of 0.587.
Variant C27A G50C has a self-cleavage of 0.493.
Variant C27G has a self-cleavage of 0.197.
C27A showed a self-cleavage of 0.711.
For C27U, the self-cleavage was 0.417.
C27G G58C gave a self-cleavage of 0.231.
For C27G G58U, the self-cleavage was 0.193.
In the case of C27U C33U, the self-cleavage is reported as 0.345.
In the case of C27U C33A, the self-cleavage is reported as 0.271.
Variant C27U C33G has a self-cleavage of 0.206.
In the case of G28A G50A, the self-cleavage is reported as 0.195.
In the case of U26G U43A, the self-cleavage is reported as 0.766.
With U26G U43C the self-cleavage was 0.863.
For U26G U43G, the self-cleavage was 0.801.
For C27G G30A, the self-cleavage was 0.228.
For C27G G30C, the self-cleavage was 0.279.
With C27G G30U the self-cleavage was 0.149.
In the case of C27A C45A, the self-cleavage is reported as 0.504.
With C27A C45G the self-cleavage was 0.578.
G28A C57A gave a self-cleavage of 0.136.
G28A C57U showed a self-cleavage of 0.137.
Variant G28A C57G has a self-cleavage of 0.17.
C27U U38C showed a self-cleavage of 0.268.
C27U U38A showed a self-cleavage of 0.281.
For C27A G28C, the self-cleavage was 0.158.
For C27A G28U, the self-cleavage was 0.187.
C27A G28A showed a self-cleavage of 0.18.
Work on C27G U62G yielded a self-cleavage of 0.241.
C27G U62A gave a self-cleavage of 0.122.
C27G U62C showed a self-cleavage of 0.257.
Work on C27A A52C yielded a self-cleavage of 0.556.
For C27A C32G, the self-cleavage was 0.155.
With C27A C32A the self-cleavage was 0.241.
Variant C27G C54U has a self-cleavage of 0.151.
With C27G C54G the self-cleavage was 0.169.
C27G A60G gave a self-cleavage of 0.204.
Variant C27G A60U has a self-cleavage of 0.181.
G28A G47C gave a self-cleavage of 0.212.
For G28A G47U, the self-cleavage was 0.262.
Work on C27U U69C yielded a self-cleavage of 0.769.
For C27U U69G, the self-cleavage was 0.457.
C27U U64G gave a self-cleavage of 0.197.
Work on C27U U64C yielded a self-cleavage of 0.245.
In the case of C27A G41A, the self-cleavage is reported as 0.196.
Work on C27A G41C yielded a self-cleavage of 0.149.
Variant C27A G56U has a self-cleavage of 0.371.
Variant C27A G56C has a self-cleavage of 0.187.
C27G C57G showed a self-cleavage of 0.175.
C27G C57A showed a self-cleavage of 0.131.
For C27U G28C, the self-cleavage was 0.218.
C27U G28U gave a self-cleavage of 0.187.
In the case of C27G U43C, the self-cleavage is reported as 0.239.
C27U A40U gave a self-cleavage of 0.207.
C27U A40G showed a self-cleavage of 0.192.
For C27U G68A, the self-cleavage was 0.614.
Work on C27U G68U yielded a self-cleavage of 0.432.
C27G G65A gave a self-cleavage of 0.141.
For C27U G50U, the self-cleavage was 0.396.
C27U G50A gave a self-cleavage of 0.371.
In the case of C27A U64A, the self-cleavage is reported as 0.286.
C27A U64G gave a self-cleavage of 0.319.
C27A C34A gave a self-cleavage of 0.164.
With C27A C34G the self-cleavage was 0.219.
For C27A C34U, the self-cleavage was 0.52.
In the case of C27U C35U, the self-cleavage is reported as 0.318.
C27U C35A gave a self-cleavage of 0.158.
In the case of C27A U61G, the self-cleavage is reported as 0.367.
C27A U61C showed a self-cleavage of 0.191.
With C27G C29G the self-cleavage was 0.208.
Work on C27G A42G yielded a self-cleavage of 0.15.
C27G A42C gave a self-cleavage of 0.177.
For C27A U36G, the self-cleavage was 0.146.
For C27A U36C, the self-cleavage was 0.261.
C27U U46C showed a self-cleavage of 0.301.
Work on C27U U46G yielded a self-cleavage of 0.372.
C27U U46A gave a self-cleavage of 0.567.
Variant C27U A51C has a self-cleavage of 0.259.
With C27U A51G the self-cleavage was 0.376.
With C27U A51U the self-cleavage was 0.303.
For C27U C63U, the self-cleavage was 0.17.
Work on C27U C29A yielded a self-cleavage of 0.192.
C27G A51U showed a self-cleavage of 0.15.
C27G A51G showed a self-cleavage of 0.217.
C27G U36A showed a self-cleavage of 0.18.
For C27A A51U, the self-cleavage was 0.577.
Variant C27A U69A has a self-cleavage of 0.843.
Work on C27A U69C yielded a self-cleavage of 0.955.
For C27A U69G, the self-cleavage was 0.825.
Variant U26G U62C has a self-cleavage of 0.674.
C27U U53C gave a self-cleavage of 0.169.
Work on G28A C29A yielded a self-cleavage of 0.143.
For G28A C29U, the self-cleavage was 0.177.
G28A C29G gave a self-cleavage of 0.117.
C27A C57U showed a self-cleavage of 0.173.
Variant C27A C57A has a self-cleavage of 0.189.
C27U U67A showed a self-cleavage of 0.276.
Work on C27U U67C yielded a self-cleavage of 0.332.
With C27G G48A the self-cleavage was 0.156.
With G28A A42G the self-cleavage was 0.131.
With G28A A42C the self-cleavage was 0.177.
Work on G28A A42U yielded a self-cleavage of 0.137.
In the case of C27G C63U, the self-cleavage is reported as 0.209.
Work on C27G C63G yielded a self-cleavage of 0.225.
In the case of U26G U38G, the self-cleavage is reported as 0.171.
Work on U26G U38A yielded a self-cleavage of 0.375.
With U26G U38C the self-cleavage was 0.664.
C27U G37U showed a self-cleavage of 0.0803.
